Values quoted from earlier work in PMC10317158.

How the values were obtained:
[1] = biological target: Sen1 NIM2 (Saccharomyces cerevisiae) (UniProt Q00416)
[2] = biological target: RNA polymerase II CTD pSer2/5 peptide CTD (Saccharomyces cerevisiae) (UniProt P04050)
[3] = biological target: Mpp6 NIM (Saccharomyces cerevisiae) (UniProt P53725)
[4] = biological target: RNA polymerase II CTD pSer2 peptide CTD (Saccharomyces cerevisiae) (UniProt P04050)
[5] = biological target: RNA polymerase II CTD pThr4 peptide CTD (Saccharomyces cerevisiae) (UniProt P04050)
[6] = biological target: RNA polymerase II CTD pSer2/7 peptide CTD (Saccharomyces cerevisiae) (UniProt P04050)

## Nrd1 CID (from UniProt P53617)
[1]
  Kd: 1750 nM
[2]
  Kd: 16 µM
[3]
  Kd: 13.6 µM

## Pcf11 CID (from UniProt P39081)
[4]
  Kd: 115 µM

## Rtt103 CID (from UniProt Q05543)
[5]
  Kd: 6 µM
[6]
  Kd: 1600 nM
